# Measurements taken from patent US8679765B2, “Methods and compositions for diagnosis and treatment of malignant and non-malignant gammopathies” (Ludwig Institute for Cancer Research Ltd., priority 2009, dated 2014).
# B1: SLP-1: recombinantly expressed human stomatin family member (protein)
# chain: MLGRSGYRALPLGDFDRFQQSSFGFLGSQKGCLSPERGGVGTGADVPQSWPSCLCHGLISFLGFLLLLVTFPISGWFALKIVPTYERMIVFRLGRIRTPQGPGMVLLLPFIDSFQRVDLRTRAFNVPPCKLASKDGAVLSVGADVQFRIWDPVLSVMTVKDLNTATRMTAQNAMTKALLKRPLREIQMEKLKISDQLLLEINDVTRAWGLEVDRVELAVEAVLQPPQDSPAGPNLDSTLQQLALHFLGGSMNSMAGGAPSPGPADTVEMVSEVEPPAPQVGARSSPKQPLAEGLLTALQPFLSEALVSQVGACYQFNVVLPSGTQSAYFLDLTTGRGRVGHGVPDGIPDVVVEMAEADLRALLCRELRPLGAYMSGRLKVKGDLAMAMKLEAVLRALK
# B2: MPMGp800E08580: RZPD clone, NM_004819.1 (protein, UniProt Q92797 1-1274, looked up)
# Symplekin: MASGSGDSVTRRSVASQFFTQEEGPGIDGMTTSERVVDLLNQAALITNDSKITVLKQVQELIINKDPTLLDNFLDEIIAFQADKSIEVRKFVIGFIEEACKRDIELLLKLIANLNMLLRDENVNVVKKAILTMTQLYKVALQWMVKSRVISELQEACWDMVSAMAGDIILLLDSDNDGIRTHAIKFVEGLIVTLSPRMADSEIPRRQEHDISLDRIPRDHPYIQYNVLWEEGKAALEQLLKFMVHPAISSINLTTALGSLANIARQRPMFMSEVIQAYETLHANLPPTLAKSQVSSVRKNLKLHLLSVLKHPASLEFQAQITTLLVDLGTPQAEIARNMPSSKDTRKRPRDDSDSTLKKMKLEPNLGEDDEDKDLEPGPSGTSKASAQISGQSDTDITAEFLQPLLTPDNVANLVLISMVYLPEAMPASFQAIYTPVESAGTEAQIKHLARLMATQMTAAGLGPGVEQTKQCKEEPKEEKVVKTESVLIKRRLSAQGQAISVVGSLSSMSPLEEEAPQAKRRPEPIIPVTQPRLAGAGGRKKIFRLSDVLKPLTDAQVEAMKLGAVKRILRAEKAVACSGAAQVRIKILASLVTQFNSGLKAEVLSFILEDVRARLDLAFAWLYQEYNAYLAAGASGSLDKYEDCLIRLLSGLQEKPDQKDGIFTKVVLEAPLITESALEVVRKYCEDESRTYLGMSTLRDLIFKRPSRQFQYLHVLLDLSSHEKDKVRSQALLFIKRMYEKEQLREYVEKFALNYLQLLVHPNPPSVLFGADKDTEVAAPWTEETVKQCLYLYLALLPQNHKLIHELAAVYTEAIADIKRTVLRVIEQPIRGMGMNSPELLLLVENCPKGAETLVTRCLHSLTDKVPPSPELVKRVRDLYHKRLPDVRFLIPVLNGLEKKEVIQALPKLIKLNPIVVKEVFNRLLGTQHGEGNSALSPLNPGELLIALHNIDSVKCDMKSIIKATNLCFAERNVYTSEVLAVVMQQLMEQSPLPMLLMRTVIQSLTMYPRLGGFVMNILSRLIMKQVWKYPKVWEGFIKCCQRTKPQSFQVILQLPPQQLGAVFDKCPELREPLLAHVRSFTPHQQAHIPNSIMTILEASGKQEPEAKEAPAGPLEEDDLEPLTLAPAPAPRPPQDLIGLRLAQEKALKRQLEEEQKLKPGGVGAPSSSSPSPSPSARPGPPPSEEAMDFREEGPECETPGIFISMDDDSGLTEAALLDSSLEGPLPKETAAGGLTLKEERSPQTLAPVGEDAMKTPSPAAEDAREPEAKGNS
# B3: MPMGp800P21581: RZPD clone, NM_001622.1 (protein, UniProt P02765 19-300; P02765 341-367, looked up)
# Alpha-2-HS-glycoprotein chain … 1: APHGPGLIYRQPNCDDPETEEAALVAIDYINQNLPWGYKHTLNQIDEVKVWPQQPSGELFEIEIDTLETTCHVLDPTPVARCSVRQLKEHAVEGDCDFQLLKLDGKFSVVYAKCDSSPDSAEDVRKVCQDCPLLAPLNDTRVVHAAKAALAAFNAQNNGSNFQLEEISRAQLVPLPPSTYVEFTVSGTDCVAKEATEAAKCNLLAEKQYGFCKATLSEKLGGAEVAVTCMVFQTQPVSSQPQPEGANEAVPTPVVDPDAPPSPPLGAPGLPPAGSPPDSHVL
# Alpha-2-HS-glycoprotein chain … 2: TVVQPSVGAAAGPVVPPCPGRIRHFKV
# B4: MPMGp800P18577: RZPD clone, NM_004323.3 (protein, UniProt Q99933 1-345, looked up)
# BAG family molecular …: MAQRGGARRPRGDRERLGSRLRALRPGREPRQSEPPAQRGPPPSGRPPARSTASGHDRPTRGAAAGARRPRMKKKTRRRSTRSEELTRSEELTLSEEATWSEEATQSEEATQGEEMNRSQEVTRDEESTRSEEVTREEMAAAGLTVTVTHSNEKHDLHVTSQQGSSEPVVQDLAQVVEEVIGVPQSFQKLIFKGKSLKEMETPLSALGIQDGCRVMLIGKKNSPQEEVELKKLKHLEKSVEKIADQLEELNKELTGIQQGFLPKDLQAEALCKLDRRVKATIEQFMKILEEIDTLILPENFKDSRLKRKGLVKKVQAFLAECDTVEQNICQETERLQSTNFALAE
# B5: paratarg: stomatin-like protein 2 (SLP-2), SEQ ID NO: 1, antigenic paraprotein target (protein, listed as Homo sapiens)
# chain: MLARAARGTGALLLRGSLLASGRAPRRASSGLPRNTVVLFVPQQEAWVVERMGRFHRILEPGLNILIPVLDRIRYVQSLKEIVINVPEQSAVTLDNVTLQIDGVLYLRIMDPYKASYGVEDPEYAVTQLAQTTMRSELGKLSLDKVFRERESLNASIVDAINQAADCWGIRCLRYEIKDIHVPPRVKESMQMQVEAERRKRATVLESEGTRESAINVAEGKKQAQILASEAEKAEQINQAAGEASAVLAKAKAKAEAIRILAAALTQHNGDAAASLTVAEQYVSAFSKLAKDSNTILLPSNPGDVTSMVAQAMGVYGALTKAPVPGTPDSLSSGSSRDVQGTDASLDEELDRVKMS
# B6: MPMGp800E08596: RZPD clone coding for paratarg (protein)
# chain: B5 chain
# modifications: left off: small tags and cut ends
# notes: RZPD clone coding for paratarg
# How the values were obtained:
# [1] = system: paratarg-specific paraprotein (patients' sera); assay: Paraprotein binding to recombinant paratarg, stomatin family members and paratarg peptides/fragments (dot blot, ELISA, peptide spot analysis); design: species or system human; conditions: for recognition by paratarg-specific paraproteins / patients' serum: ELISA, Western blotting or peptide spot analysis
# Protocol: 100 ng of each recombinant protein were separated by SDS-PAGE and transferred to PVDF membrane (Millipore Immobilon) by semidry blotting. The membrane was blocked in TST/milk buffer (10% milk in 10 mM Tris/HCl, pH 7.5, 150 mM NaCl, 0.1% (v/v) Tween 20) overnight, washed and incubated for 1 h with serum in TST (paraprotein patients serum at a dilution of 1:10^8 and control patients serum at a dilution of 1:10^3). After three washings in TST, the membranes were incubated for 1 h at RT with goat anti-human IgG AP-coupled antibody (Dianova) diluted 1:5,000 in TST, subsequently washed in TST followed by AP-development.
# His6-tagged fusion proteins were spotted on nitrocellulose membranes. After spotting, the protein arrays were blocked, incubated and detected as described above.
# The epitopes recognized by the patients' paraproteins were identified as described before (Preuss et al, 2006). In brief: matrix-bound synthesized decamer peptides with 5 amino acids overlaps between every 2nd consecutive decamer covering the entire paratarg sequence were used to screen patients sera. Paratarg-specific paraproteins binding to the corresponding paratarg epitopes were visualized by ECL technique according to the suppliers' instructions (PIERCE, Rockford, USA). Finally, matrix stripes were photographed for documentation.
# Full-length paratarg was recombinantly expressed in HEK293 cells under control of CMV promoter introducing a FLAG tag at the C-terminus of the protein. Total cell extract was prepared and coated indirectly to Nunc maxisorb plates using anti-FLAG mAb (Sigma). Elisa was performed according standard protocols. Partially truncated paratarg fragments were processed accordingly.
# Paratarg fragments were obtained by PCR amplification using suitable primers and verified by sequencing. These fragments were subcloned into the vector and expressed as described before.
# [2] = system: paraproteins of serum pool #1 (MGUS/MM patients' sera); assay: Serum profiling on high density protein arrays (paraprotein screening of hEx1 human fetal brain macroarray); assay type: binding; design: key: Paraprotein-binding quality/strength are ++, + and ±.; Paraprotein-binding quality/strength are ++, + and ±.; Paraprotein-binding quality/strength are ++, + and ±; conditions: serum pool #1 (n=114), each serum diluted 1:10^8
# Protocol: Screening analyses were performed on hEx1 high-density protein expression cDNA libraries, created in Hans Lehrach's laboratory at the Max Planck Institute for Molecular Genetics in Berlin (Germany) and obtained from the Reference Center of the German Human Genome Project (RZPD) (Bussow et al, 1998). These high-density filter membranes display proteins that were expressed from a modified pQE protein expression vector (Qiagen). This vector featured a hexahistidine tag, a T5 promoter and two lac operator sequences, which allowed repression during the growth phase by overexpression of the Lac repressor protein, and subsequent induction of protein expression with isopropyl-beta-D-thiogalactopyranoside (IPTG).
# High density protein arrays of the protein expression set of the hEx1 library were obtained from the German Resource Center for Genome Research (RZPD) and provided by Dr. Mahlknecht from our department. They consist of 37,200 independent clones derived from a human fetal brain cDNA expression library and were used for autoantibody detection. For serum profiling, the filters were blocked in 10% (w/v) non-fat, dry milk powder in TBST (TBS, 0.1% (v/v) Tween 20) at 4° C. overnight, washed twice in TBST, and incubated for 1 h with serum pool #1 at a dilution of 1:10^8 for each serum. Following three 30-min TBST washes and subsequent incubation with the secondary antibody (goat anti-human IgG biotinylated, Dianova, diluted 1:2.500) and Strep-PDX (1:15.000) in 2% (w/v) Milk/TBST, the filters were washed three times for 30 min in TBST. This was followed by detection using Pharmacia ECL system. Positive signals were localized according to the manufacturer's protocol. Corresponding clones were obtained from RZPD.
# In this study we screened a human high-density protein array containing 37,200 independent recombinant proteins derived from a human fetal brain expression library with sera obtained from patients with monoclonal gammopathy of undetermined significance (MGUS) and multiple myeloma (MM).
# The signal pattern obtained from the screening with the paraprotein pools at a dilution of 1:10^8 were compared with the patterns obtained from screening with the control sera from clinically healthy donors and to background incubations. […] 5′- and 3′-tag sequencing of these clones was performed, and their sequences were used for BLAST searches against public databases at NCBI.
# Using serum pool #1 (paraprotein type: 15 IgA, 88 IgG, 11 oligoclonal, n=114) we identified 14 putative paraprotein targets on the human protein filter array (FIG. 1, Tab. 1). […] Sequence searches and comparisons using the in-frame sequences identified five known proteins and one unknown gene product derived from chromosome 8.
Molecule,recognition by paratarg-specific paraproteins / patients' serum [1],Signal-quality (paraprotein-binding quality/strength) [2],other results
SLLASGRAP [paratarg amino acid region],recognized,–,–
SLLASGRAPRRASSG [15 amino acid region near the N-terminal end of paratarg],recognized by patients' serum,–,–
stomatin: recombinantly expressed human stomatin family member,no signal,–,–
B1,no signal,–,–
B2,–,+,–
B3,–,+,–
B4,–,+,–
B5,–,–,serum dilution at which recognition was detectable ([1]; individual patient sera): 10^10; titer of paraprotein-containing sera reacting with the antigen ([1]; sera of more than two patients): > 10^8
B6,–,++,–
